First the molecules themselves.
B1: OR4K15 (parent)
chain: GUUAACGGUCAUAGGCCAUGGAAACUAGGAGCACCAUUUCGCUGCCAGUGAAGAAAUGAACAAAGAAAAUCUGGGCCAGGCAGGCAUCAAAAGAAAUAGUCUUGCGCUCAACCAGAAAGUCUGUAAUCAUUUUAAGGGUA

In this data set the parent is B1. Briefly: self-cleavage, relative activity (ratio to wild type); higher = more cleavage; in vitro, sequencing; the parent is a self-cleaving ribozyme.
As to A5G A11U, the self-cleavage amounted to 0.86.
To U2C A69G belongs 0.91.
To U2C C42U belongs 1.46.
Consider U2C G73A, for which the self-cleavage amounted to 0.22.
To A4U G106A belongs 0.14.
Regarding U3C A98U, the self-cleavage was determined as 2.88.
For U3C A59G, the self-cleavage amounted to 1.17.
On to U2G A68G, for which the self-cleavage was determined as 0.43.
As for A5G A116U, the figure is 0.25; as for A4G U12C, 0.58.
To U3G A66G belongs 1.01; to U2G U103C, 0.85.
Turning to U2C C10A, the self-cleavage is 1.94.
Take U3C U38C: the self-cleavage stood at 0.98.
With A5G A27U, the self-cleavage worked out at 0.96.
Regarding A4G G106A, the self-cleavage came to 0.02.
A4G G138A: the self-cleavage was 0.99.
In the case of A5C U132C, the self-cleavage was 1.97.
As for U2C U87C, the figure is 0.43; as for A5G C107U, 0.02; as for U3G U26C, 0.94.
Turning to U3A A64C, the self-cleavage was 1.33.
As for A5G A90C, the self-cleavage was 1.08.
To A5G A90G belongs 1.11; to A4G U103C, 1.19; to A4G U103A, 1.27.
For A4G U72C, the self-cleavage came to 0.21.
Regarding A4G U72A, the self-cleavage came to 0.22.
Take A4G A95G: the self-cleavage came out at 1.4.
A4G A95C: the self-cleavage came to 1.49.
As for A4U A95G, the self-cleavage is 1.65.
On to U3C U39C, for which the self-cleavage is 1.15.
Turning to U3C A52G, the self-cleavage was found to be 1.1.
For U2C A116G, the self-cleavage turned out to be 0.6.
Take U3A U38C: the self-cleavage was 1.
U2G A11U: the self-cleavage is 1.51.
To U3C U130A belongs 1.27; to U2C G48U, 0.43.
For U3A U122C, the self-cleavage is 1.35.
To U3C A116G belongs 0.68.
To A5G A67G belongs 0.89.
To A5G A67C belongs 0.63; to A5C A33G, 0.87.
In the case of U3A U102C, the self-cleavage is 1.99.
In the case of A5G A54U, the self-cleavage turned out to be 0.83.
As to A5G A54G, the self-cleavage came to 1.04.
Consider U2G A89G, for which the self-cleavage was 0.3.
Turning to U3C A64G, the self-cleavage was 0.7.
U2C A126G: the self-cleavage is 1.22.
On to A5C A68G, for which the self-cleavage worked out at 1.63.
As for U3C U108C, the figure is 0.04.
Consider U3A U127C, for which the self-cleavage was found to be 0.63.
Take U2C U132A: the self-cleavage is 1.23.
Regarding A5G, the self-cleavage was determined as 0.92.
Consider A5C, for which the self-cleavage was 1.21.
On to A5G A125G, for which the self-cleavage was 0.42.
Take U3C A111G: the self-cleavage was 0.03.
As for U2G U39A, the self-cleavage was found to be 0.87.
On to A4U A63G, for which the self-cleavage was 0.87.
Regarding A5C U102A, the self-cleavage stood at 1.35.
Take U3C A95G: the self-cleavage came out at 1.02.
As for A4G U122A, the self-cleavage is 1.37.
As for U3C A126G, the self-cleavage is 0.58.
Regarding U3C A126U, the self-cleavage stood at 0.79.
As for U2G A69U, the self-cleavage is 0.94.
A4G A110G: the self-cleavage was 0.4.
Turning to U2C G29A, the self-cleavage is 1.36.
Consider U3C A62U, for which the self-cleavage is 1.22.
Take U3C A62G: the self-cleavage is 0.96.
To U2C U9A belongs 0.57; to U2C U9C, 0.83.
Take U3G A59G: the self-cleavage worked out at 0.68.
On to A5G C121A, for which the self-cleavage stood at 1.89.
As to A5G C121U, the self-cleavage turned out to be 1.14.
With A4C A62G, the self-cleavage stood at 0.88.
Regarding A4C A62U, the self-cleavage was 0.93.
In the case of A4G A92G, the self-cleavage amounted to 1.18.
On to A4G A92U, for which the self-cleavage amounted to 1.44.
Turning to U2C U103A, the self-cleavage is 0.62.
For the variant A5G A47G, the self-cleavage is 1.37.
Take A5G A47C: the self-cleavage is 1.22.
With A4G U100C, the self-cleavage was found to be 1.42.
In the case of U3C C107G, the self-cleavage is 0.09.
As for A5C A52G, the self-cleavage was 0.46.
As for U2C U131A, the figure is 1.39.
Regarding U2C U131C, the self-cleavage came to 1.08.
Consider A4G A5G, for which the self-cleavage was determined as 1.25.
To A4G A55G belongs 1.13; to U3C A68C, 1.6; to U3C A68G, 0.86.
For the variant U3A A52U, the self-cleavage came to 0.58.
Regarding U3C U127C, the self-cleavage is 1.79.
On to U2C A96C, for which the self-cleavage stood at 1.85.
For A4G G15C, the self-cleavage stood at 1.28.
Take A4G A69C: the self-cleavage was 0.53.
Consider A4G A69U, for which the self-cleavage turned out to be 1.14.
A4G A69G: the self-cleavage turned out to be 1.31.
To U2C U70A belongs 0.71; to U2C U70C, 0.46; to U2C U19C, 0.96.
As for U2C U19A, the self-cleavage turned out to be 1.16.
Consider U3C A125U, for which the self-cleavage amounted to 0.83.
U3C A125G: the self-cleavage was found to be 0.74.
Take A5C A134U: the self-cleavage came to 2.1.
As for U2C U120A, the figure is 1.03; as for U2C U43A, 1; as for U2C U43C, 1.57.
With A5G G80A, the self-cleavage was found to be 0.43.
U2C U26A: the self-cleavage amounted to 0.37.
As for U2C U12C, the self-cleavage turned out to be 0.74.
In the case of U2C U12G, the self-cleavage came out at 0.39.
A5G A94G: the self-cleavage is 1.
To A5G A94U belongs 0.8; to U3C A91U, 1.11; to U3C A91G, 0.84.
For U3C A91C, the self-cleavage was 0.84.
As for U2C A140U, the self-cleavage was 1.55.
For A5G G73A, the self-cleavage was 0.21.
To U2G A78U belongs 0.4.
Turning to A5G A13G, the self-cleavage is 0.89.
Consider A5G A13U, for which the self-cleavage came to 0.95.
As to U3C A67G, the self-cleavage came to 0.97.
On to U3A U70C, for which the self-cleavage was 1.14.
To A5G A24G belongs 1.14; to A5G A24U, 0.83.
With U3C C71A, the self-cleavage worked out at 0.16.
To U3C C71U belongs 0.12; to A4G G14A, 1.05.
U3G U37C: the self-cleavage turned out to be 1.52.
For U3C A110G, the self-cleavage was 0.19.
In the case of U3C A110U, the self-cleavage was 1.16.
To A5G G104A belongs 0.03.
As for A4C A111G, the self-cleavage stood at 0.04.
As for U2C U108C, the self-cleavage stood at 0.03.
Consider A5G A118C, for which the self-cleavage was determined as 1.
Take U2C U127C: the self-cleavage turned out to be 0.9.
To U2C U127A belongs 2.05.
As for U2C A118G, the self-cleavage turned out to be 0.88.
Regarding U2C A118U, the self-cleavage was 0.44.
U3C A22U: the self-cleavage was determined as 1.12.
On to A5C U103C, for which the self-cleavage amounted to 1.39.
To A5G A89G belongs 1.23; to A4G A64G, 1.21.
Turning to U3A A36G, the self-cleavage is 0.85.
Turning to U3A A36U, the self-cleavage stood at 1.61.
Consider A5C A36U, for which the self-cleavage came out at 1.59.
Take A5G G7A: the self-cleavage was 0.91.
As for A5G G7U, the self-cleavage is 1.05.
To A5C A23G belongs 1.28.
As to A4U A24G, the self-cleavage turned out to be 0.76.
Regarding U3C, the self-cleavage was found to be 1.1.
As for U3A, the self-cleavage came out at 1.
With U3G, the self-cleavage is 1.07.
As for U2C A134U, the self-cleavage worked out at 0.69.
For the variant U2C A134G, the self-cleavage stood at 1.59.
In the case of U3C A78U, the self-cleavage is 0.51.
As to A5G G48A, the self-cleavage was 0.77.
As to U3C U49C, the self-cleavage was 0.5.
As for U3A U103C, the figure is 0.76; as for A4U A140G, 1.16; as for U3C A30G, 0.92.
Take A4G U124A: the self-cleavage worked out at 0.48.
Turning to A4G U124C, the self-cleavage worked out at 0.5.
On to A5G A56G, for which the self-cleavage was 0.66.
To U3G G41U belongs 1; to U2G A91G, 1.16; to U3A U130C, 1.09.

These data come from the RNAGym collection of RNA variant scans (doi:10.7554/elife.90254).
